Experimental data from patent publication US20160369258A1, “RESTRICTING NUCLEAR PROTEIN TO SPECIFIC PHASES OF THE CELL CYCLE” (UNIVERSITY OF WASHINGTON, priority 2014, published 2016).

Columns and labels:
[1] = tested on: Ramos B cells; test: Subcellular distribution of AID fusion proteins determined by HCS microscopy; type: cell-based, human; conditions: for Nuclear mCherry, mean: corrected for cytoplasmic baseline
Method: Cells were fixed in 3.7% formaldehyde at a density of 2×10^6 cells/ml and stained with whole cell stain (HCS CellMask, Invitrogen) and DAPI (0.2 μg/ml). Fixed cells were then washed, resuspended in PBS and spun down in a 96-well μclear microplate (Greiner Bio One) for imaging. Cells were imaged by Thermo Scientific ArrayScan VTI HCS reader, analyzing 3000-6000 cells in each treatment group. Cells with very low or very high mCherry signals were eliminated, gating based on the mock transduction control (low) and eliminating cells with signals more than 5 SD from the mean (high). The HCS Colocalization BioApplication protocol was used to determine nuclear and whole cell boundaries in individual cells as defined by DAPI and HCS CellMask, respectively, thereby defining the cytoplasmic region as the region between nuclear and whole cell boundaries. The average signal in the nuclear and cytoplasmic compartments was determined in individual cells by measuring the total intensity of mCherry signal divided by area within each compartment. The ratio of nuclear to cytoplasmic signal (N/C) was calculated as the ratio of the average signals of nuclear and cytoplasmic mCherry.
G1, S, and G2/M phase cells were distinguished by ranking DNA content as determined by total DAPI signal, and specific fractions of the population assigned to G1, S and G2/M phases (FIG. 16A). HCS results were expressed in terms of average signal, to ensure independence of cell size, which increases during cell cycle (FIG. 16).
Cells were fixed and stained with whole cell stain (HCS CellMask, Invitrogen) and DAPI, washed, and imaged by Thermo Scientific ArrayScan VTI HCS reader, analyzing 3000-6000 cells in each treatment group. To enable accurate comparisons among different transductant populations, nuclear signal for each cell was corrected by subtraction of the corresponding baseline value, as established by linear regression analysis. HCS results were expressed in terms of average signal, to ensure independence of cell size.

[2] = tested on: Ramos B cells; test: sIgM loss frequency assay (surrogate for SHM); type: cell-based, human; conditions: day 7 after sorting mCherry+ cells
From the text: sIgM loss frequency provides a convenient surrogate assay for SHM (45, 46). To determine fractions of sIgM− cells, 2-5×10^5 cells were fixed in 3.7% formaldehyde and stained with anti-human IgM (1:500, Souther Biotech), and sIgM− variants quantified by FACS as described (47). To establish that selective pressure was not sufficient to affect the frequency of sIgM loss, we assayed loss of mCherry signal posttransduction (FIG. 18).

B1: AID^F193A-mCherry: AID-mCherry carrying the AID F193A mutation, which prevents nuclear export (protein, UniProt Q9GZX7 1-198, looked up, variant F193A)
Single-stranded DNA cytosine …: MDSLLMNRRKFLYQFKNVRWAKGRRETYLCYVVKRRDSATSFSLDFGYLRNKNGCHVELLFLRYISDWDLDPGRCYRVTWFTSWSPCYDCARHVADFLRGNPNLSLRIFTARLYFCEDRKAEPEGLRRLHRAGVQIAIMTFKDYFYCWNTFVENHERTFKAWEGLHENSVRLSRQLRRILLPLYEVDDLRDAARTLGL
modifications: C-terminal mCherry fusion
notes: AID-mCherry carrying the AID F193A mutation, which prevents nuclear export
In the case of B1, the “subcellular localization by HCS across cell cycle” value ([1]; G1, S, G2/M phase cells) is reported as “persistent nuclear localization”, the “Cytoplasmic mCherry, mean” value ([1]; G1 phase cells) is reported as 66.4 and the “Total mCherry, mean” value ([1]; G1 phase cells) is reported as 117.5. For the same molecule, the “Nuclear mCherry, mean” value ([1]; G1 phase cells) was 75.4, the “Cytoplasmic mCherry, mean” value ([1]; G2/M phase cells) was 60.2 and the “Total mCherry, mean” value ([1]; G2/M phase cells) was 109.7. For the same molecule, the “Nuclear mCherry, mean” value ([1]; G2/M phase cells) was 63.6, the “Cytoplasmic mCherry, mean” value ([1]; S phase cells) was 58.6 and the “Total mCherry, mean” value ([1]; S phase cells) was 103.2. For the same molecule, the “Nuclear mCherry, mean” value ([1]; S phase cells) was 56.8, the “Cytoplasmic mCherry, mean” value ([1]; whole transductant population) was 62.9 and the “Total mCherry, mean” value ([1]; whole transductant population) was 111.4. The “Nuclear mCherry, mean” value ([1]; whole transductant population) was 67.5 and the sIgM loss rates [2] was “greatly elevated”.
